Measured values: patent publication US20140087991A1, “PEPTIDE PRODRUGS” (The Johns Hopkins University, priority 2006, published 2014)
Peptide text beside a SMILES is read from it.

Tests used:
FAP [1] = target: T1, FAP (Homo sapiens, UniProt Q12884); assay: FAP gelatinase and collagenase assay with quenched (DQ) proteins; format: biochemical; settings: 100 μgs/ml protein substrate
T1 construct: the extracellular domain of FAP was cloned with a His-6 tag; made in house
T1 sequence (Q12884 26-760 limits assumed): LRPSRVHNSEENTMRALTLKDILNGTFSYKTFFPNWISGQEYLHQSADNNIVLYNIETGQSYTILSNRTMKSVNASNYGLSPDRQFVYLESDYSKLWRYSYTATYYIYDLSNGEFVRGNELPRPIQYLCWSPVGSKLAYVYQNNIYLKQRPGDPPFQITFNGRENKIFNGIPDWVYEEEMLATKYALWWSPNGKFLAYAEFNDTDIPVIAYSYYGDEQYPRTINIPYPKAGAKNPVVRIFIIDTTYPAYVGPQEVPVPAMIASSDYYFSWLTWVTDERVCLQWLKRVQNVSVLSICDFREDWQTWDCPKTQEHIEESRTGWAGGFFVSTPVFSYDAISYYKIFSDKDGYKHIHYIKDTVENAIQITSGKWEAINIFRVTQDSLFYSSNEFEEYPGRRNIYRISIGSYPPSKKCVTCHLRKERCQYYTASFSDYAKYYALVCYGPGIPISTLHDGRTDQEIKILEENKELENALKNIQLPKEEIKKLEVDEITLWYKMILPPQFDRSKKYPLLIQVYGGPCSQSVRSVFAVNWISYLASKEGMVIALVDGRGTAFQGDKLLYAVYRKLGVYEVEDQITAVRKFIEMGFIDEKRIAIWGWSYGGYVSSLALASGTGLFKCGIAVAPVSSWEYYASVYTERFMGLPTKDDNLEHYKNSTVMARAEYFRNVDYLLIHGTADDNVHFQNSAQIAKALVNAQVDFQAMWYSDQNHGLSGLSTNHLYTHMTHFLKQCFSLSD
Protocol: Quenched gelatin and collagen conjugates were used to detect and confirm FAP's gelatinase and collagenase activity. DQ™ Gelatin from pig skin, DQ™ collagen, type IV from human placenta, DQ™ collagen, type I from bovine skin, all as fluorescent conjugates (Invitrogen, Rockville, Md.) were digested with FAP and digestion monitored on a fluorescence plate reader. Protein substrates were dissolved in reaction buffer (100 mM NaCl, 100 mM Tris, pH 7.8) to a final concentration of 100 μgs/ml. Trypsin digestion was used as a positive control. As a negative control the His tagged extra cellular domain of Prostate Specific Membrane Antigen (PSMA), which was similarly purified from S2 cells under the same conditions as FAP. Fluorescent quenched DQ™ Bovine Serum Albumin was used as a negative control for FAP protease activity.
Quenched forms of Gelatin and Collagen were used to confirm the gelatinase and collagenase activity of recombinant FAP. Quenching is achieved by labeling these proteins with the fluorophore FITC such that fluorescence signal from the intact protein is minimal due to is self-quenching by the fluorphore. Protein digestion releases FITC-labeled fragments that result in measurable increase in overall fluorescence signal from the reaction mixture. […] On a relative basis gelatin was digested ˜10-fold better by FAP than collagen I. MALDI analysis of digested fragments was performed to confirm hydrolysis.

FAP [2] = target: T2, FAP (Homo sapiens, UniProt Q12884); settings: previously demonstrated; cited from earlier work
T2 sequence (Q12884 1-760): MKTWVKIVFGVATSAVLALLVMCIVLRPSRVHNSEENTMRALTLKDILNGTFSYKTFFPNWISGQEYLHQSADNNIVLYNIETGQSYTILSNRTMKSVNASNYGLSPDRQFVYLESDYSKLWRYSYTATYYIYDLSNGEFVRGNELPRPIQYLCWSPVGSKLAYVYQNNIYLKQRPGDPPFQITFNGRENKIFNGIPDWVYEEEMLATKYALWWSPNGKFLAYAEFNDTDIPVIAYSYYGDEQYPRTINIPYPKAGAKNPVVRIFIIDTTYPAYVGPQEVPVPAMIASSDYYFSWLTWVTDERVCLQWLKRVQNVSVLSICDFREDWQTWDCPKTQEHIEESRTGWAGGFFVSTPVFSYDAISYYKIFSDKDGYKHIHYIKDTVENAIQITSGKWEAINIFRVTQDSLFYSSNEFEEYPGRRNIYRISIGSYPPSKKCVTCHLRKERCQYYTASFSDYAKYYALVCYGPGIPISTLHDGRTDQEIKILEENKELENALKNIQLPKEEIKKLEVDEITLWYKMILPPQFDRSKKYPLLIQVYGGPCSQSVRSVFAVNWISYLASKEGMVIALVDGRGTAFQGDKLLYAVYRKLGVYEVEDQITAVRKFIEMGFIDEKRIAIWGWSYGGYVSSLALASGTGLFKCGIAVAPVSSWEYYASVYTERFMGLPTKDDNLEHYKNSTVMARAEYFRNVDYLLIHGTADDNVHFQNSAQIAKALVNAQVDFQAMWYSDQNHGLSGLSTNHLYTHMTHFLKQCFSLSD

FAP [3] = target: T1, FAP; assay: FAP dipeptidyl peptidase assay; format: biochemical
Protocol: Quantitative assay for dipeptidyl peptidase activity were developed using Ala-Pro-AFC as the substrate as described by Park et al^18. Purified protein was mixed with 5-10-fold volumes of reaction buffer (100 mM NaCl, 100 mM Tris, pH 7.8), and added to an equal volume of 0.5 mM Ala-Pro-AFC in reaction buffer followed by incubation for 1 h at 37° C. Release of free AFC was measured in a DTX 880 Multimode Detector (Beckman, Fullerton, Calif.) using the 395 nm excitation/530 nm emission filter set.

all cell lines tested = assay: Cytotoxicity, average IC50 over cell lines; format: cell-based
FAP [4] = target: T1, FAP; assay: Digestion of human collagen I and recombinant gelatins with FAP (SDS-PAGE, MALDI); format: biochemical; settings: SDS PAGE and MALDI spectra
Protocol: Human collagen I (Becton Dickinson, Franklin Lakes, N.J.) and recombinant human gelatins of 100 KDa and 8.5 KDa (Fibrogen, San Francisco, Calif.) were dissolved in reaction buffer to a final concentration of 100-300 μg/ml. 0.5-1 μg of FAP was added per 100 μgs of protein substrate. Digestion was done for 4-6 hrs at 37° C. As a positive control trypsin digestion was used. As a negative control, protein solutions were incubated either with BSA or buffer only. Peptide fragments of a size <30 KDa were purified using 30 KDa Microcon spin filter (Millipore, Billerica, Mass.).
In an effort to elucidate the substrate specificity of FAP, we examined FAP digests of unlabeled human Collagen I using matrix assisted laser desorption ionization (MALDI) time of flight mass spectrometry. Digestion reactions were performed at a substrate to protease mass ratio of 200:1 using recombinant FAP or modified trypsin as a control. Two negative controls of Collagen alone and FAP alone were also included to identify any peptides due to autolysis/degradation of these proteins. […]
As Collagen I and Gelatin are currently the only known protein substrates for FAP, we developed an alternative method to identify FAP-selective cleavage sites within these proteins. […] The masses of fragments <3 KDa were purified for MALDI spectra and again analyzed using the FindPept tool. […]

| hydrolysis of FITC-quenched protein by FAP (FAP [1]) | Molecule | cleavage by FAP (FAP [2]) | IC50 (all cell lines tested) | further results |
| --- | --- | --- | --- | --- |
| readily hydrolyzed | Collagen I: FITC-quenched DQ collagen I from bovine skin; in b297 Collagen I of the cited literature | could cleave |  |  |
|  | C[C@H](N)C(=O)N1CCC[C@H]1C(=O)Nc1ccc2c(C(F)(F)F)cc(=O)oc2c1 [Ala-Pro-AFC] (HELM PEPTIDE1{A.P.[O=c1cc(C(F)(F)F)c2ccc(N[*:1])cc2o1]}$$$$V2.0) |  |  | cleavage of dipeptide substrate by purified FAP (FAP [3]): same kinetic parameters as previously described |
|  | CC(=O)O[C@H]1C(=O)[C@@]2(C)[C@H]([C@H](OC(=O)c3ccccc3)[C@]3(O)C[C@H](OC(=O)[C@H](O)[C@@H](NC(=O)c4ccccc4)c4ccccc4)C(C)=C1C3(C)C)[C@]1(OC(C)=O)CO[C@@H]1C[C@@H]2O [paclitaxel] |  | 10 nM |  |
|  | C/C=C(/C)C(=O)O[C@H]1C(C)=C2[C@H]([C@@H]1OC(=O)CCCCCCC)[C@@](C)(OC(C)=O)C[C@H](OC(=O)CCC)[C@@]1(O)[C@H]2OC(=O)[C@@]1(C)O [thapsigargin] |  | 0.1 nM |  |
|  | human Collagen I: unlabeled human collagen I (Becton Dickinson) |  |  | digestion by FAP (FAP [4]): cleaved by FAP at certain specific sites |
| not all digested | Collagen IV: FITC-quenched DQ collagen IV from human placenta; in b297 Collagen IV of the cited literature | not |  |  |
